Laboratory results as given in patent US8450067B2, “Method for obtaining anti-idiotype antibodies” (Omrix Biopharmaceuticals Inc., priority 2002, dated 2013).
Each block holds one substance with its values, some of them ahead of it.

How the values were obtained:
[1] = target: synthetic cyclic peptide (1) KHETTET; assay: ELISA on coated Pep 1; control IgG 1 ug/ml
[2] = target: synthetic cyclic peptide (1) KHETTET; assay: ELISA on coated Pep 1; control IgG 5 ug/ml
[3] = target: literature peptide …; assay: ELISA on coated Pep 10 (Table 3); control IgG 5 ug/ml
[4] = target: synthetic cyclic peptide (7) LSQPERW; assay: ELISA on coated Pep 7; control IgG 1 ug/ml
[5] = target: synthetic cyclic peptide (8) PPPDLHA; assay: ELISA on coated Pep 8; control IgG 5 ug/ml
[6] = target: literature peptide …; assay: ELISA on coated Pep 2 (Table 3); control IgG 5 ug/ml
[7] = target: synthetic cyclic peptide (3) AGLKNSQ; assay: ELISA on coated Pep 3; control IgG 1 ug/ml
[8] = target: literature peptide …; assay: ELISA on coated Pep 6 (Table 3); control IgG 5 ug/ml
[9] = target: synthetic cyclic peptide (9) GTTQWVL; assay: ELISA on coated Pep 9; control IgG 1 ug/ml
[10] = target: synthetic cyclic peptide (5) VRVLLRS; assay: ELISA on coated Pep 5; control IgG 5 ug/ml
[11] = target: literature peptide …; assay: ELISA on coated Pep 5 (Table 3); control IgG 5 ug/ml
[12] = target: synthetic cyclic peptide (15) KYKRKYP; assay: ELISA on coated Pep 15; control IgG 5 ug/ml
[13] = target: synthetic cyclic peptide (10) YGTPSSE; assay: ELISA on coated Pep 10; control IgG 1 ug/ml
[14] = target: synthetic cyclic peptide (9) GTTQWVL; assay: ELISA on coated Pep 9; control IgG 5 ug/ml
[15] = target: synthetic cyclic peptide (3) AGLKNSQ; assay: ELISA on coated Pep 3; control IgG 5 ug/ml
[16] = target: literature peptide …; assay: ELISA on coated Pep 9 (Table 3); control IgG 5 ug/ml
[17] = target: literature peptide …; assay: ELISA on coated Pep 6 (Table 3); control IgG 1 ug/ml
[18] = target: literature peptide …; assay: ELISA on coated Pep 8 (Table 3); control IgG 5 ug/ml
[19] = target: synthetic cyclic peptide (11) SLQRHPW; assay: ELISA on coated Pep 11; control IgG 5 ug/ml
[20] = target: synthetic cyclic peptide (15) KYKRKYP; assay: ELISA on coated Pep 15; control IgG 1 ug/ml
[21] = target: literature peptide …; assay: ELISA on coated Pep 8 (Table 3); control IgG 1 ug/ml
[22] = target: synthetic cyclic peptide (7) LSQPERW; assay: ELISA on coated Pep 7; control IgG 5 ug/ml
[23] = target: synthetic cyclic peptide (2) PPNHSHL; assay: ELISA on coated Pep 2; control IgG 5 ug/ml
[24] = target: literature peptide …; assay: ELISA on coated Pep 11 (Table 3); control IgG 5 ug/ml
[25] = target: synthetic cyclic peptide (14) PPQKHLL; assay: ELISA on coated Pep 14; control IgG 1 ug/ml
[26] = target: synthetic cyclic peptide (13) DWLYSRS; assay: ELISA on coated Pep 13; control IgG 1 ug/ml
[27] = target: synthetic cyclic peptide (10) YGTPSSE; assay: ELISA on coated Pep 10; control IgG 5 ug/ml
[28] = target: synthetic cyclic peptide (6) TQPPELP; assay: ELISA on coated Pep 6; control IgG 5 ug/ml
[29] = target: synthetic cyclic peptide (4) ASTIRAG; assay: ELISA on coated Pep 4; control IgG 5 ug/ml
[30] = target: synthetic cyclic peptide (12) PLPDWRV; assay: ELISA on coated Pep 12; control IgG 1 ug/ml
[31] = target: synthetic cyclic peptide (12) PLPDWRV; assay: ELISA on coated Pep 12; control IgG 5 ug/ml
[32] = target: synthetic cyclic peptide (1) KHETTET; assay: ELISA on coated Pep 1 (Table 3); control IgG 5 ug/ml
[33] = target: literature peptide …; assay: ELISA on coated Pep 2 (Table 3); control IgG 1 ug/ml
[34] = target: literature peptide …; assay: ELISA on coated Pep 7 (Table 3); control IgG 1 ug/ml
[35] = target: literature peptide …; assay: ELISA on coated Pep 4 (Table 3); control IgG 1 ug/ml
[36] = target: synthetic cyclic peptide (5) VRVLLRS; assay: ELISA on coated Pep 5; control IgG 1 ug/ml
[37] = target: synthetic cyclic peptide (14) PPQKHLL; assay: ELISA on coated Pep 14; control IgG 5 ug/ml
[38] = target: synthetic cyclic peptide (6) TQPPELP; assay: ELISA on coated Pep 6; control IgG 1 ug/ml
[39] = target: literature peptide …; assay: ELISA on coated Pep 5 (Table 3); control IgG 1 ug/ml
[40] = target: synthetic cyclic peptide (13) DWLYSRS; assay: ELISA on coated Pep 13; control IgG 5 ug/ml
[41] = target: synthetic cyclic peptide (4) ASTIRAG; assay: ELISA on coated Pep 4; control IgG 1 ug/ml
[42] = target: literature peptide …; assay: ELISA on coated Pep 3 (Table 3); control IgG 1 ug/ml
[43] = target: synthetic cyclic peptide (2) PPNHSHL; assay: ELISA on coated Pep 2; control IgG 1 ug/ml
[44] = target: synthetic cyclic peptide (8) PPPDLHA; assay: ELISA on coated Pep 8; control IgG 1 ug/ml
[45] = target: synthetic cyclic peptide (1) KHETTET; assay: ELISA on coated Pep 1 (Table 3); control IgG 1 ug/ml
[46] = target: literature peptide …; assay: ELISA on coated Pep 11 (Table 3); control IgG 1 ug/ml
[47] = target: literature peptide …; assay: ELISA on coated Pep 10 (Table 3); control IgG 1 ug/ml
[48] = target: literature peptide …; assay: ELISA on coated Pep 9 (Table 3); control IgG 1 ug/ml
[49] = target: synthetic cyclic peptide (11) SLQRHPW; assay: ELISA on coated Pep 11; control IgG 1 ug/ml
[50] = target: literature peptide …; assay: ELISA on coated Pep 4 (Table 3); control IgG 5 ug/ml
[51] = target: literature peptide …; assay: ELISA on coated Pep 7 (Table 3); control IgG 5 ug/ml
[52] = target: literature peptide …; assay: ELISA on coated Pep 3 (Table 3); control IgG 5 ug/ml
BALB/c neonatal mice = BALB/c neonatal mice immunized later with pCDR1 or the pathogenic auto-Ab; cited from earlier work
[53] = system: immunoglobulin eluted from a peptide column bearing the peptide 706; assay: ELISA of peptide column eluate with biotinylated peptides (706 column); assay type: binding, human; details: FIG. 3; biotinylated peptide 1 μg/ml
Method: (§1) To measure the binding efficacy of peptide column eluates (706 and 707) the following ELISA was performed:
(§2) Microtiter plates (Costar, USA) were coated overnight at 2-8° C. with 10 μg/ml NeutrAvidin (Pierce, USA) suspended in 0.1M, pH 8.8, of carbonate-bicarbonate buffer (Sigma USA). The coating solution was removed, washed three times with washing buffer (1×PBS) and 200 μl of blocking solution (freshly prepared 1% I Block, Tropix, USA) per well was added and incubated for 1 hour at 37° C. Coated and blocked plates can be stored at −20° C. for a month before use.
(§3) Tested samples diluted in the blocking solution were mixed in a separate tube with 1 μg/ml (final concentration) of the appropriate biotinylated peptide and the mixture was incubated for 1 hour at 37° C. 100 μl from each reaction tube was then transferred to the blocked microtiter plate and incubated at 37° C. for ½ hour. A 100 μl of 1:5000 Alkaline Phosphatase conjugate goat anti human IgG (Heavy and light chain from Jackson, USA) diluted in the blocking buffer was applied into the microtiter well and incubated for 1 hour. […] The measurement was done photometrically at 405 nm.

[54] = system: immunoglobulin elution peak from a peptide column bound with peptide 707; assay: ELISA of peptide column eluate with biotinylated peptides (707 column); assay type: binding, human; details: FIG. 4; biotinylated peptide 1 μg/ml
Method: as §1, §2, §3

mice = details: cited from earlier work
[55] = system: anti-dsDNA antibody-positive SLE sera; details: sera which cross react with ssDNA; cited from earlier work

OD at 405 nm [1]: 0.013 OD | OD at 405 nm [2]: 0.016 OD | OD at 405 nm [3]: 0.041 OD | OD at 405 nm [4]: 0.045 OD | OD at 405 nm [5]: 0.046 OD | OD at 405 nm [6]: 0.041 OD | OD at 405 nm [7]: 0.011 OD | OD at 405 nm [8]: 0.043 OD | OD at 405 nm [9]: 0.045 OD | OD at 405 nm [10]: 0.008 OD | OD at 405 nm [11]: 0.048 OD | OD at 405 nm [12]: 0.068 OD | OD at 405 nm [13]: 0.06 OD | OD at 405 nm [14]: 0.044 OD | OD at 405 nm [15]: 0.011 OD | OD at 405 nm [16]: 0.045 OD | OD at 405 nm [17]: 0.046 OD | OD at 405 nm [18]: 0.041 OD | OD at 405 nm [19]: 0.068 OD | OD at 405 nm [20]: 0.037 OD | OD at 405 nm [21]: 0.044 OD | OD at 405 nm [22]: 0.048 OD | OD at 405 nm [23]: 0.009 OD | OD at 405 nm [24]: 0.041 OD | OD at 405 nm [25]: 0.079 OD | OD at 405 nm [26]: 0.069 OD | OD at 405 nm [27]: 0.048 OD | OD at 405 nm [28]: 0.009 OD | OD at 405 nm [29]: 0.011 OD | OD at 405 nm [30]: 0.043 OD | OD at 405 nm [31]: 0.045 OD | OD at 405 nm [32]: 0.043 OD | OD at 405 nm [33]: 0.04 OD | OD at 405 nm [34]: 0.043 OD | OD at 405 nm [35]: 0.04 OD | OD at 405 nm [36]: 0.009 OD | OD at 405 nm [37]: 0.083 OD | OD at 405 nm [38]: 0.007 OD | OD at 405 nm [39]: 0.043 OD | OD at 405 nm [40]: 0.078 OD | OD at 405 nm [41]: 0.013 OD | OD at 405 nm [42]: 0.043 OD | OD at 405 nm [43]: 0.009 OD | OD at 405 nm [44]: 0.043 OD | OD at 405 nm [45]: 0.044 OD | OD at 405 nm [46]: 0.043 OD | OD at 405 nm [47]: 0.042 OD | OD at 405 nm [48]: 0.044 OD | OD at 405 nm [49]: 0.068 OD | OD at 405 nm [50]: 0.039 OD | OD at 405 nm [51]: 0.052 OD | OD at 405 nm [52]: 0.043 OD
Substance: IgG purified from one donor (negative control) (antibody)

binding of 706 column eluate to biotinylated peptide [53]: reacted specifically in a linear fashion | binding of 707 column eluate to biotinylated peptide [54]: reacted
Substance: TGYYMQWVKQSPEKSLEWIG [Pep 706]
auto-Ab production (BALB/c neonatal mice): prevent auto-Ab production | effect on disease in experimental SLE mice (mice; experimental SLE mice): ameliorate the disease | induction of SLE-like disease in mice (mice; responder mice (BALB/c, SJL)): induced a mild SLE-like disease

Substance: RLTSSLRYNP [synthetic peptide mimotope of dsDNA (Sun et al. 2001)]
share of anti-dsDNA antibody-positive SLE sera that recognize the peptide [55]: 88%
